Holding throughout (details): protein: recombinant; blunt
Data set [1] addresses T1, Sc_Rpn4p (Saccharomyces cerevisiae S288C, UniProt Q03465 2-531).
T1 sequence: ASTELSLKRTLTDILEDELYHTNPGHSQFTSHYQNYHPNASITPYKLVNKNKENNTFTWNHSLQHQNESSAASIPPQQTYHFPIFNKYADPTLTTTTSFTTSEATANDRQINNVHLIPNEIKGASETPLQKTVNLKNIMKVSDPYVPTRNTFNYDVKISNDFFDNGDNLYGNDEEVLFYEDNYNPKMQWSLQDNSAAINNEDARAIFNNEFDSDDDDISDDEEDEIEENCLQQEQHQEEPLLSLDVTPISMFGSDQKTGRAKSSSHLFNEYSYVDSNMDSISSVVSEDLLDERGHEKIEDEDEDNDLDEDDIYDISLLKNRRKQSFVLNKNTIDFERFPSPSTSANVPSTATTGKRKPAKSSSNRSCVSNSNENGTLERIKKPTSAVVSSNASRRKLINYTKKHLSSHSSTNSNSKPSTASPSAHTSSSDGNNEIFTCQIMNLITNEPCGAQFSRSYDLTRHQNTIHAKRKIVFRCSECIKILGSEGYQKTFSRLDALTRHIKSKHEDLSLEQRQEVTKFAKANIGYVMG
As to the kind of experiment: SPR; 50 nM protein; Biacore 3000 SA chip; HBS: 10 mM HEPES pH 7.4, 150 mM NaCl, 3 mM EDTA, 0.005% P20; room temperature; 10 ul/min, 90 s injection; competitors preincubated 50 min. (In general: SPR reads the build-up and loss of mass on a sensor chip optically.)

In data set [2] the target is T1, Sc_Rpn4p. As to the kind of experiment: competition; SPR; 1x and 5x competitor; best competitor on Sequences A, B, C; Biacore 3000 SA chip; HBS: 10 mM HEPES pH 7.4, 150 mM NaCl, 3 mM EDTA, 0.005% P20; room temperature; 10 ul/min, 90 s injection; competitors preincubated 50 min.
In data set [3] the target is T1, Sc_Rpn4p. As to the kind of experiment: competition; SPR; 1x and 5x competitor; Biacore 3000 SA chip; HBS: 10 mM HEPES pH 7.4, 150 mM NaCl, 3 mM EDTA, 0.005% P20; room temperature; 10 ul/min, 90 s injection; competitors preincubated 50 min.
For data set [4], the target named is T1, Sc_Rpn4p. As to the kind of experiment: SPR; Biacore 3000 SA chip; HBS: 10 mM HEPES pH 7.4, 150 mM NaCl, 3 mM EDTA, 0.005% P20; room temperature; 10 ul/min, 90 s injection; competitors preincubated 50 min.

B1: Sequence A (dsDNA)
DNA 1: GCGTGCCAGATAATCGGTGGCAAAACGGAAGAAAAAGTGA
DNA 2: TCACTTTTTCTTCCGTTTTGCCACCGATTATCTGGCACGC
Consider B1, for which, in the data set with Sc_Rpn4p [1], the binding result is recorded as “binds”.

B2: Sequence D competitor (dsDNA)
DNA 1: CCAGATAATCGGTGGCAAAACGGAAGAAAA
DNA 2: TTTTCTTCCGTTTTGCCACCGATTATCTGG
B2: in the data set with Sc_Rpn4p [2], the binding result is on record as “binds”.

B3: Sequence G competitor (dsDNA)
DNA 1: CCAGATAATCCTGCATTTGGCGGAAGAAAA
DNA 2: TTTTCTTCCGCCAAATGCAGGATTATCTGG
For the molecule B3, the binding result in the data set with Sc_Rpn4p [3] is “no binding”.

B4: Sequence I (dsDNA)
DNA 1: ACTTGTTCCCGCTCGCTGGAGCTCCTCCAACGACACGGGC
DNA 2: GCCCGTGTCGTTGGAGGAGCTCCAGCGAGCGGGAACAAGT
In the case of B4, the binding result in the data set with Sc_Rpn4p [4] was “no binding”.
